# Measured values from patent publication US20100129369A1 (Eli Lilly, published 2010).
# T1: RON-ECD-Fc (human, UniProt Q04912 25-957)
# T1 construct: extracellular domain; Bought reagent; not shown: Fc part of the bought fusion
# T1 sequence (looked up): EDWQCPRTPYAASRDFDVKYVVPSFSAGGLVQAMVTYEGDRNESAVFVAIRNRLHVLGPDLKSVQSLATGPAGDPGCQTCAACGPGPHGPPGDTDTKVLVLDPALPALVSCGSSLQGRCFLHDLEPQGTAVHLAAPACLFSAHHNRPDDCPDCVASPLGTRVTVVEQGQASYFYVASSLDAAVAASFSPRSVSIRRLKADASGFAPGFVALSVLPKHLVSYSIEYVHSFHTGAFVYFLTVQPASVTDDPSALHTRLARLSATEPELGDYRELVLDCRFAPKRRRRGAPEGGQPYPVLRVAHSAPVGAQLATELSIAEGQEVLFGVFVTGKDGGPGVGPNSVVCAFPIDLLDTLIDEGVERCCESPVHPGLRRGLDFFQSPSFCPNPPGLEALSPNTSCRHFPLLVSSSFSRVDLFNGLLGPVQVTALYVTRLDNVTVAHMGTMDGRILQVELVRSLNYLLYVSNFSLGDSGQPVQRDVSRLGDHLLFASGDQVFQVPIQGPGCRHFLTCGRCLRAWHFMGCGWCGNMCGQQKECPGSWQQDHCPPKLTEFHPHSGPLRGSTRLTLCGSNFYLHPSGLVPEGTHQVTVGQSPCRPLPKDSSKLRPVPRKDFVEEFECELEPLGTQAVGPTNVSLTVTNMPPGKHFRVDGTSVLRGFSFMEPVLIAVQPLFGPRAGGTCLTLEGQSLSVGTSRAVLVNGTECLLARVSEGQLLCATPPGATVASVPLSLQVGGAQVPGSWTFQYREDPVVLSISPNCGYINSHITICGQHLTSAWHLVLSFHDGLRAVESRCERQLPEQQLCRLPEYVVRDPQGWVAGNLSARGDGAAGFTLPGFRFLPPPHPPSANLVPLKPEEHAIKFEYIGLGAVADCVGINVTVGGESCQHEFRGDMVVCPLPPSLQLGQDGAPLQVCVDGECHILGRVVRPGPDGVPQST
# T2: PlexinA2-ECD-Fc (human, UniProt O75051 35-1237)
# T2 construct: extracellular domain; Bought reagent
# T2 sequence (looked up): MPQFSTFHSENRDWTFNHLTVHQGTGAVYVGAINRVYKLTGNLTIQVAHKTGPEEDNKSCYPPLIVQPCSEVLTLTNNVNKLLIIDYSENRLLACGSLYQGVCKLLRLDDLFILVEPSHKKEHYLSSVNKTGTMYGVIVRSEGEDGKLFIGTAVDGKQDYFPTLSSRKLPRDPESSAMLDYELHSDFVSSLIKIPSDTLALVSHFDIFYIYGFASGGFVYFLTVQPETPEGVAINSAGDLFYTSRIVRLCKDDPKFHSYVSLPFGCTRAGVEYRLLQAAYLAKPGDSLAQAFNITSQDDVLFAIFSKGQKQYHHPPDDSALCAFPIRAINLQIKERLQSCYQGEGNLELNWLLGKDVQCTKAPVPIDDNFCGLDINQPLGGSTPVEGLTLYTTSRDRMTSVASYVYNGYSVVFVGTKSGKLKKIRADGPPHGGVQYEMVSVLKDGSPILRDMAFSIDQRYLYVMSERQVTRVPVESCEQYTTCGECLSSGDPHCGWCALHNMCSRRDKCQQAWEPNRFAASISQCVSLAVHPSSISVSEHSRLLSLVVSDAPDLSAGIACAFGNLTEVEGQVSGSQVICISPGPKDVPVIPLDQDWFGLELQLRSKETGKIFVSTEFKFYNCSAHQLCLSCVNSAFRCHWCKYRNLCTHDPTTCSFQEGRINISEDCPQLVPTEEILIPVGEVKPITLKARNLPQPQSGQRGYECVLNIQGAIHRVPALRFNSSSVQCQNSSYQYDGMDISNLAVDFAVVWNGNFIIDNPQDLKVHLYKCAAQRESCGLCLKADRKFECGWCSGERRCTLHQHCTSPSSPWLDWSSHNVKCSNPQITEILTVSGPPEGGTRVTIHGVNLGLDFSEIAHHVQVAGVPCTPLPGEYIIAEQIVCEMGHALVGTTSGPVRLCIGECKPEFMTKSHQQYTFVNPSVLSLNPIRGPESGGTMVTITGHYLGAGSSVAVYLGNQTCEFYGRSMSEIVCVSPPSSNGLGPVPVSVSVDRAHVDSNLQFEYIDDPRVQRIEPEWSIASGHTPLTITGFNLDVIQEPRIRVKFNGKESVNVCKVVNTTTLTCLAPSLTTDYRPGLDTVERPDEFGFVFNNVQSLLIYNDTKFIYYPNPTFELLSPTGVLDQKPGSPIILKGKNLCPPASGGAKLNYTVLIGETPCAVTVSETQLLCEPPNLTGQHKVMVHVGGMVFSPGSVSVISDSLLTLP
# B1: C8-6 (antibody, human IgG2, kappa, V domains shown)
# VH: QVQLVQSGAEVKKPGASVKVSCKASGYTFTDYYMHWVRQAPGQGLEWMGRVNPNRGGTTYNQKFEGRVTMTTDTSTSTAYMELRSLRSDDTAVYYCARTNWLDYWGQGTTVTVSS
# VL: DIQMTQSPSSLSASVGDRVTITCSVSSSVSSIYLHWYQQKPGKAPKLLIYSTSNLASGVPSRFSGSGSGTDFTLTISSLQPEDFATYYCIQYSGYPLTFGGGTKVEIKR
# notes: Called IgG4, kappa; also called Mab C8-6
# Key:
# [1] = target: T1, RON-ECD-Fc; experiment: ELISA, coated ECD-Fc, antibody 0.010 ng/mL
# [2] = target: T2, PlexinA2-ECD-Fc; experiment: ELISA, coated ECD-Fc, antibody 0.010 ng/mL
binder,measurement,setting,value
B1,Average A450 nm,[1],0.097 A450 nm
same,Average A450 nm,[2],0.095 A450 nm
